Entries after “also recorded” stand apart in the source; their conditions may differ.

One molecule from US8329186B2, “Treatment of inflammation using BST2 inhibitor” (Isu Abxis Co., Ltd, priority 2004, dated 2012) can be followed below.

One experiment relates to IL-4, IL-5 and IL-13. In words: Ovalbumin-induced mouse model of asthma: cytokines in lung tissue (immunoblot). As to conditions: ovalbumin-sensitized asthmatic mice. Type of experiment: in vivo. On the procedure: A mouse model of asthma was prepared by sensitizing mice (C57B6, 8 weeks) with ovalbumin. In detail, mice were initially sensitized for five continuous days by intranasal injection of ovalbumin. After three weeks, mice were intranasally sensitized again with ovalbumin for five continuous days. One week after the secondary sensitization, mice were challenged intranasally with ovalbumin three times every 24 hrs to induce asthma. Herein, a Bst2 decoy was intravenously injected into mice 30 min before sensitization with ovalbumin, and was injected into mice 30 min before the first sensitization and the last injection of ovalbumin. Three days after the last injection, serum samples, lung tissues, and the like were collected from mice.
When a Bst2 or Damp1 decoy was injected into a mouse model of asthma which was induced by sensitization and challenge with ovalbumin, expression levels of cytokines (interleukin-4 (IL-4), interleukin-5 (IL-5) and interleukin-13 (IL-13)) were measured as follows. […] The bound primary antibodies were detected with a HRP-conjugated secondary antibody (anti-rabbit HRP-conjugated IgG) using ECL reagent.
Expression of 11-4, IL-5 and IL-13 was measured in the murine asthma model as described in Example 8-3 after injection with Bst2 decoy or Bst2 decoy Fc fusion proteins.

Another experiment deals with HUVECs and U937 cells. The experiment can be described thus: Heterotypic aggregation/adhesion between IFN-γ-treated HUVECs and U937 cells. Type of experiment: cell-based, human. On the procedure:
HUVECs (1−5×10^4 cells/ml) were seeded onto a 12-well cell culture plate. After one day, the medium was exchanged with a low-serum medium containing 0.5% FBS, and the cells were pretreated with interferon-gamma (IFN-γ; Calbiochem) in a final concentration 10 ng/ml for 24 hrs. Then, the pretreated HUVECs were co-cultured with U937 cells (2×10^6 cells/ml, 500 μl) at 37° C. for 4 hrs. The co-culture was washed with phosphate buffer three or four times, and the remaining cells were fixed with 4% paraformaldehyde and microscopically observed.
HUVECs were transfected with an expression vector for Bst2, treated with or without IFN-γ and then transfected with Bst2 siRNA. These cells were assessed for U937 cell adhesion.
HUVECs were cultured in 12-well plates with or without transfection of Bst2 siRNA or control siRNA for 6 hr, then treated with or without IFNγ for 24 hr. In some experiments, cells were treated with crude media containing Bst2 decoy or mouse anti-human ICAM1 antibodies. After a wash with PBS (phosphate buffered saline), U937 cells were resuspended in serum free medium at 2×10^6 cells/ml. Assays were initiated by the addition of 200 ul U937 cells to HUVEC for a final volume of 1 ml. After 4 hr at 37° C., unbound U937 cells were removed by washing plates three times with PBS. Bound cells were fixed by the addition of 4% paraformaldehyde in PBS, and the bound cells were counted under microscopy in different fields. All statistical analyses were performed in Excel and statistical significance were evaluated with Student's t test. In some experiments, RNA samples were obtained from HUVECs after treatment with IFNγ and/or siRNAs, and real-time polymerase chain reaction (RT-PCR) analyses were performed.

For experiment [1], the system named is OVA-induced atopic dermatitis. In words: OVA-induced atopic dermatitis model in mice. Type of experiment: in vivo, BALB/c mice. As for the experimental part:
An experimental model of atopic dermatitis based on immunity against ovalbumin (OVA) was utilized to test Bst2 decoy for efficacy in atopic dermatitis. BALB/c mice were immunized at the beginning of weeks 1, 2, and 3 with intraperitoneal injections of OVA/ALUM. During week 4, an OVA-soaked patch was applied to the shaved backs of the animals. The patches were removed and 5 daily doses of Bst2 decoy was administered to the animal by intravenous injections of 10 mg/kg during week 5. OVA-soaked patches were applied again to the animals over week 6 and the animals were sacrificed for evaluation at the beginning of week 7 (FIG. 43).
Serum was prepared from blood sample collected from the sacrificed animals. OVA-specific IgE levels were determined by ELISA assays in which OVA was coated on the plate, OVA-specific immunoglobulin present in the serum samples allowed to blind, and IgE levels ascertained utilizing anti-IgE specific antibodies.

A further experiment relates to U937 cells. In words: Direct binding of U937 cells to Bst2 decoy-coated plates. Set-up: species or system human. As to conditions: Bst2 decoy-coated wells vs BSA. As for the experimental part:
Flat-bottomed 96-well plates were coated with Bst2 decoy with sodium bicarbonate (100 mM, pH 9.5) for 2 hrs at 37° C. The plates were washed with PBS (pH 7.4) and incubated with 1% bovine serum albumin (BSA) at 25° C. After a rinse with PBS (pH 7.4) containing 1 mM CaCl2 and 0.5 mM MgCl2, U937 cells (1×10^6/ml) were added to each dBst2-coated well. After 2 hrs of incubation at 37° C., unbound cells were removed by two gentle washes with RPMI1640 media (Gibco-BRL) and bound cells were fixed with 2% paraformaldehyde for 20 minutes, washed, and stained with 0.5% crystal violet. After 30 minutes at 25° C., the plates were washed with PBS and bound cells were counted.

B1: Bst2 decoy: soluble Bst2 protein fragment having the amino acid sequence of SEQ ID NO:1; extracellular region of human Bst2, six-histidine tag (protein)
chain: NSEACRDGLRAVMECRNVTHLLQQELTEAQKGFQDVEAQAATCNHTVMALMASLDAEKAQGQKKVEELEGEITTLNHKLQDASAEVERLRRENQVLSVRIADKKYYPSSQDHHHHHH
As to B1, the “cytokine levels (IL-4, IL-5, IL-13) in lung tissue” value in the experiment with IL-4, IL-5 and IL-13 is listed as “decreased with increasing doses”. In addition, the “binding of U937 cells to IFNγ-treated HUVECs” value in the experiment with HUVECs and U937 cells (Bst2 decoy-containing medium, IFN-γ 10 ng/ml 24 hrs, co-culture 4 hrs) is given as “decreased binding”. The “dose dependence of effect in heterotypic cell aggregation/adhesion assay” value in the experiment on HUVECs and U937 cells (IFNγ-treated HUVECs and U937 cells) is given as “dependent on concentrations; also recorded: dose-dependent response”. In addition, the “formation of lesions after OVA-soaked patch” value in experiment [1] (10 mg/kg intravenous, 5 daily doses during week 5, end of week 6) was “little if any formation of lesions”. Also, the “serum OVA-specific IgE levels” value in experiment [1] (ELISA) is on record as “substantial reduction”. The “inflammation in H&E stained skin sections” value in experiment [1] (to a level similar to the negative control group) was “marked decrease in inflammation”. Moreover, in the experiment on U937 cells, the “attachment of U937 cells to coated wells” value was “attached”.
